Measured values reported in the RNAGym collection of RNA variant scans (doi:10.1073/pnas.2313332121).

B1: TPR t1 (parent)
chain: GACCAAUCUGCCCUCAGAGCUCGAGAACAUCUUCGGAUGCAGAGGAGGCAGGCUUCGGUGGCGCGAUAGCGCCAACGUCCUCAACCUCCAAUGCAUCCCACCACAUGAUGAUGCCUGAAGAGCCUUGGUUUUUUG

Variants of: B1
Assay: polymerase ribozyme fitness, log enrichment relative to wild type (log ratio); higher = more active; in vitro selection for triplet polymerase activity
How it was run: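 Frozen incubation at −7 °C formed the core of a single, triplicate in vitro selection round applied to PCR-built, transcribed mutant libraries of each subunit of a heterodimeric triplet polymerase ribozyme. Extended constructs were gel-excised, captured with streptavidin beads and amplified by RT-PCR, and input and output libraries were Illumina-sequenced with a filter of ≥10 input reads and ≥1 read per output. Fitness is the logarithm of genotype enrichment relative to wild-type enrichment, with inverse-variance-weighted replicate averaging, and the logarithm is base 2.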

Variant	polymerase ribozyme fitness (log ratio)
C12G A43G	-1.17
C12G A46C C101U U132C	-1.45
C12G A46G G63A C115G	-6.03
C12G A50U G117C U125C	-6.32
C12G A83U C104A U125G	-2.42
C12G A103U	-4.83
C12G C13A G42C G69A G117C A118U U134G	-4.53
C12G C13A G45C C56U	-1.27
C12G C13U	-0.223
C12G C13U G52U G61U C102U A121U G122C	-1.95
C12G C15A A108G A111C	-4.53
C12G C15A C22U A26G U116C A118U C124G	-2.97
C12G C15A U78A	-2.34
C12G C15G G45A G61C	-4.58
C12G C15U	-0.505
C12G C15U C56U G77C A83C C88A U106A U132A	-3.55
C12G C20G C79U C82U A91U G107C G117A	-4
C12G C20U C72U G117U	-2.78
C12G C20U C76A	-1.37
C12G C20U C123U U125C	-0.31
C12G C22G	-3.07
C12G C22U U32G C102A A111U G122U	-7.04
C12G C28U	-0.928
C12G C28U G36U G60A A83C C97U	-3.31

Variant	polymerase ribozyme fitness (log ratio)
C12G C34G C114A	-6.75
C12G C34G G69U A83C	-3.04
C12G C40A A50C C80A A84C C104U	-3.24
C12G C40G	-1.2
C12G C49A G63U C72U C89A	-3.61
C12G C49G C70A C97U	-1.84
C12G C53A	0.285
C12G C53A C73G G107C U112C	-3.66
C12G C56A	0.208
C12G C56A C70G	-3.89
C12G C62G A108G	-3.58
C12G C62U A75C A108G	-2.34
C12G C62U U116A	-2.68
C12G C64G	-5.49
C12G C64U	0.291
C12G C72A C104U C123U C124A	1.79
C12G C72U	0.127
C12G C72U U116A G120U	-0.787
C12G C73G C88G	-1.78
C12G C82U A105U U106A U109G	-1.76
C12G C82U C97A	-3.58
C12G C88U A105U C123A	-0.335
C12G C89U	-0.711
C12G C114U	-1.65

Variant	polymerase ribozyme fitness (log ratio)
C12G C123U	1.34
C12G G19A G63U C79G U81G U112C G117U	-7.76
C12G G19C G23C U59C G60U	-6.79
C12G G36U U132A	-1.56
C12G G39A C89A U106C	-2.19
C12G G39U G60U C80G C123U	-4.73
C12G G42A G52A C62U C104A	-5.44
C12G G44U A90C A121U	0.668
C12G G44U G60U A100U	-0.779
C12G G45A G107U	-5.21
C12G G48A G60A G93A	-1.03
C12G G61C	-0.968
C12G G65A	-3.6
C12G G113A	-0.4
C12G U14A	-1.56
C12G U14G A24G C49A G61U G77U C104U	-6.42
C12G U14G G52C G61A C82A C88A A118U	-2.32
C12G U21A G71U U78A A121U	-0.676
C12G U21C A29U C123U U131A	-1.87
C12G U33G	-4.76
C12G U33G C70U U87G A118U U125A	-5.53
C12G U54C G61C	-2.85
C12G U55C C88A C104G G113A C123G C124A	-6.5
C12G U92C G120U	1.41

Variant	polymerase ribozyme fitness (log ratio)
C12G U96G G117U	-2.18
C12U A16G C20U C64A A84U U112G G113U	-7.14
C12U A16G C73U C102A	-1.8
C12U A18C A29G C82U U92A	-3.51
C12U A18C G71U U131C	-1.9
C12U A18G C20U C94U G117U	0.203
C12U A18U	-2.21
C12U A27C C62A A83U	-6.02
C12U A27G A66C C73A U78C C101A	-4.25
C12U A27G C40U C56U C86U C102U	-3.62
C12U A27G G47A G51A G58A G61C A103G A121G	-7.4
C12U A29C U131G	-2.88
C12U A29U G52C C73U	-1.91
C12U A37U A111G C123A	-0.195
C12U A37U A119U	-0.00616
C12U A37U C85U G93C G120A	0.532
C12U A37U G60C	-1.06
C12U A41U A50U G57C C76G C99U	-7.02
C12U A41U C56A U87A C114U	-3.21
C12U A43C A90U	-0.274
C12U A43U C56G	-1.63
C12U A46C C53G G71C A84C A95C	-2.46
C12U A46U C49U G63C A90C	-4.26
C12U A50U	-1.64

Variant	polymerase ribozyme fitness (log ratio)
C12U A66G A74U	-1.17
C12U A74U C80A C97U A121G U133A	-0.836
C12U A75G G128A	-1.43
C12U A83C	0.0344
C12U A100U	-0.242
C12U A108G U130A	-3.19
C12U A111G	0.95
C12U A111U	-2.01
C12U A119C A121C	-2.21
C12U C13A C72G U78C	-1.57
C12U C13A C114G	-4
C12U C13A G60C A121U	1
C12U C13G C20A A37G A46U G77A G120A	-2.45
C12U C13G C70G	-2.49
C12U C13U	-0.904
C12U C13U A43G G61A	-2.1
C12U C13U C20A G47C C86U	-2.7
C12U C13U C97A C123U C124A	-2.92
C12U C13U G42U G51C U116G	-7.04
C12U C13U U38C C40A A91U	-3.21
C12U C15G C79A C85G G120A	-2.63
C12U C15G G71C G127C	-4.84
C12U C15U	-0.154
C12U C15U U38C A43C C123A	-1.45

Variant	polymerase ribozyme fitness (log ratio)
C12U C20A C28U A37G G42A G45U A46U G48A C82U G110A A111U A119G	-4.23
C12U C20G A43C G48A C62U	-6.08
C12U C20U A43U G45A C56G G113A	0.057
C12U C20U C40U C49G	-1.67
C12U C20U U96C	-0.583
C12U C22A	-4.93
C12U C22U U59C C85G	-4.46
C12U C22U U59C C89G U109A U116A C123G	-7.4
C12U C28G	-1.98
C12U C31U G77U U87C C123U	-3.57
C12U C34A	-2.28
C12U C34A C53U C72U	-2.62
C12U C34G G127A	-6.04
C12U C40U A90G	0.0487
C12U C49A C76G C80G C88A U92C U112C	-7.46
C12U C49A U96C	-0.405
C12U C49G G61C	-1.89
C12U C49U C97U	-1.6
C12U C49U G77A C97A C98A U109A A119U G127C	-6.68
C12U C53G C97A	-5.8
C12U C56A C73A U78C A111G U129G	-1.25
C12U C56A G69A U129A	-5.35
C12U C62G G122U	-0.331
C12U C64U C98U	-0.396

Variant	polymerase ribozyme fitness (log ratio)
C12U C72U C104A U125G	-1.99
C12U C72U U81G	-3.47
C12U C72U U130G	-0.295
C12U C76G C79A C99U U126C	-5.59
C12U C76U	-0.504
C12U C79U	0.083
C12U C86U A103U A111U	-4.99
C12U C99U	-2.6
C12U C104U	0.248
C12U C115U	-0.992
C12U C124G	2.23
C12U G17C A29G C82A A90U A95C U106C G120A A121U	-6.75
C12U G17C G71A C97G C115G	-4.83
C12U G17U C94U G113A	-2.71
C12U G23A G120A	-3.8
C12U G25A G93C G120C	-7.38
C12U G25U	-6.45
C12U G36C G117U	-0.382
C12U G36U	-0.34
C12U G39A C56A	-0.34
C12U G39A C72A A74G C79U C80G	-5.3
C12U G39A C72G C85U	-1.34
C12U G39C G127C U133A	-1.79
